In test [1] the target is T1, HER2/neu extracellular domain (UniProt P04626 23-652, limits assumed).
T1 construct: extracellular domain; also called ErbB2
The experiment in a line: surface plasmon resonance (BIAcore), HER2/neu extracellular domain on the chip, ALM injected; concentrations not given. (Surface plasmon resonance follows binding to a sensor surface in real time, without labels.)

In test [2] the target is T2, HER3 extracellular domain (UniProt P21860 20-643, limits assumed).
T2 construct: extracellular domain; also called ErbB3
The experiment in a line: surface plasmon resonance (BIAcore), HER3 extracellular domain on the chip, ALM injected; concentrations not given.

T2 sequence (P21860 20-643 limits assumed): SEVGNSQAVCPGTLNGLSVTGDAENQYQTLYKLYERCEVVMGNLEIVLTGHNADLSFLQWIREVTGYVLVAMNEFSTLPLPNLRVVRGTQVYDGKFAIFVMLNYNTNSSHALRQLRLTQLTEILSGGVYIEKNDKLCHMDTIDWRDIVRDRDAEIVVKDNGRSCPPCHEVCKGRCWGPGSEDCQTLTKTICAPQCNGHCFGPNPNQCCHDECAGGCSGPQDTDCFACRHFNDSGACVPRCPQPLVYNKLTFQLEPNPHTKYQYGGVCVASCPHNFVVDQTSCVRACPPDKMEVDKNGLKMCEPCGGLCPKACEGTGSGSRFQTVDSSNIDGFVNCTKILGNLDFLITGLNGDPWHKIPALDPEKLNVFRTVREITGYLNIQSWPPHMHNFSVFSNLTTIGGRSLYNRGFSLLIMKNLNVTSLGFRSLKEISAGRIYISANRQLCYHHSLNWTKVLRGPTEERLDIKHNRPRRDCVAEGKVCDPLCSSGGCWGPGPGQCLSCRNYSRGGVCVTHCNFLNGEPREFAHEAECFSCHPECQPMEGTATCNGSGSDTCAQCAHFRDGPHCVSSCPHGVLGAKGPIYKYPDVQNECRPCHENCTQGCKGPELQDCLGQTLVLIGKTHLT

B1: ALM (A5-ML3.9) bispecific scFv (bispecific antibody)
scFv: AMAQVQLVQSGGGLVKPGGSLRLSCAASGFSFNTYDMNWVRQAPGKGLEWVSSISSSSSYIYYADSVKGRFTISRDNAKNSLYLQMNSLRAEDTAVYYCARDGVATTPFDYWGQGTLVTVSSGGGGSGGGGSGGGGSQSVLTQPPSVSGAPGQRVTISCTGSSSNIGAGYDVHWYQQLPGTAPKLLIYGNSNRPSGVPDRFSGSKSGTSASLAITGLQAEDEADYYCQSYDSSLSALFGGGTKLTVLGNSGAGTSGSGASGEGSGSKLQVQLVQSGAEVKKPGESLKISCKGSGYSFTSYWIAWVRQMPGKGLEYMGLIYPGDSDTKYSPSFQGQVTISVDKSVSTAYLQWSSLKPSDSAVYFCARHDVGYCSSSNCAKWPEYFQHWGQGTLVTVSSGGGGSGGGGSGGGGSQSVLTQPPSVSAAPGQKVTISCSGSSSNIGNNYVSWYQQLPGTAPKLLIYDHTNRPAGVPDRFSGSKSGTSASLAISGFRSEDEADYYCASWDYTLSGWVFGGGTKLTVLGLEHHHHHH
notes: Expressed in E. coli TG1 from pUC/ALM and purified by IMAC and size exclusion; also called A5/Linker/ML3.9 bs-scFv; ALM proteins
As for B1, the binding result in test [1] and in test [2] was “binds” each time.

These data come from US20100196265A1 (University of California, published 2010).
